Assay results from patent US20160041182A1 (Janssen / Centocor, published 2016).
Substitutions are numbered along the chain they refer to.

T1: mouse IL-17A (mouse, UniProt Q62386 26-158, limits assumed)
T1 construct: In SPR it was injected in solution, and no biotinylation is mentioned there; also called mIL-17A; mIL17A
T1 sequence (looked up): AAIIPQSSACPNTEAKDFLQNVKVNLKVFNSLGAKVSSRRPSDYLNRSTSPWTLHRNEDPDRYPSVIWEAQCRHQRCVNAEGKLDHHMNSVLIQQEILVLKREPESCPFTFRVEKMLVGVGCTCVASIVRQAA

B1: TP1KR9P61-G4 (designed binder)
chain: MLPAPKNLVVSRVTEDSARLSWTAPDAAFDSFAIEYFEDWWSGEAIVLTVPGSERSYDLTGLKPGTEYAVSIRGVKGGYPSAPLSAIFTT
notes: also called TCL14-His fusion protein
B2: TP1KR9P61-E2 (designed binder)
chain: B1 chain with Y79M, A82P
notes: as for B1
B3: TP1KR9P62-H10 (designed binder)
chain: B1 chain with A69S, Y79H, A82V
notes: as for B1
B4: TP1KR9P62-E3 (designed binder)
chain: B1 chain with A33G, W40Y, S42T
notes: as for B1
B5: TP1KR9P62-C6 (designed binder)
chain: B1 chain with Y57C, A69S, S71T, A82S
notes: as for B1
B6: TP1KR9P62-D4 (designed binder)
chain: B1 chain with A33G, E35I, S42A, A69G, Y79P, A82R
notes: as for B1
B7: TP1KR9P62-C3 (designed binder)
chain: B1 chain with A69S, S71T, Y79P, A82S
notes: as for B1
B8: TP1KR9P62-A2 (designed binder)
chain: B1 chain with P5L, R19H, F37S, W40Y, S42L, A69G, A82P
notes: as for B1
B9: TP1KR9P62-D8 (designed binder)
chain: B1 chain with A69G, Y79L, P80A, A82P
notes: as for B1
B10: TP1KR9P61-A7 (designed binder)
chain: B1 chain with A69S, A82S
notes: as for B1
B11: TP1KR9P61-A2 (designed binder)
chain: B1 chain with Y79M
notes: as for B1
B12: TP1KR9P62-D3 (designed binder)
chain: MLPAPKNLVVSRVTEDSARLSWTAPDAAFDSFAIEYFEDWWSGEAIVLTVPGSERSYDLTLKPGTEYSVSIRGVKGGYPSSPLSAIFTT
notes: as for B1

These binders were tested against T1, mouse IL-17A (assay: SPR (ProteOn XPR-36), clone amine-coupled on chip, mIL-17A in solution, 1:1 Langmuir fit).
Description: The affinities of select molecules binding to mIL-17A were measured using surface Plasmon resonance using a ProteOn XPR-36 instrument (Bio-Rad). Purified molecules were directly immobilized on the chip via amine coupling with varying densities (100˜300 Rus) at pH 5.0 and a flow rate of 30 μL/min for 5 minutes mIL-17A at 100 nM diluted in a 3-fold concentration series was tested for their binding to different molecules on the chip surface. The dissociation phases for all concentrations of all samples was monitored for 1˜2 hours at a flow rate of 100 μL/min depending on their off-rate. A buffer sample was injected to monitor the baseline stability and the surface was not regenerated for further use. The response data for all concentration series for each of the different surfaces of the scaffold molecules selected from the TLC14 library were globally fit to a 1:1 simple langmuir binding model to extract estimates of the kinetic (kₒₙ, koff) and affinity (KD) constants. As summarized in Table 9, affinities of the scaffold molecules specifically binding mIL-17A were at a subnanomolar range. Sequences of select mIL-17A binders are shown in SEQ ID NOS: 85-96, and the sequences of the C and F beta-strands and the CD and the FG loops in Table 10.
Work on B1 yielded a Kd of 309 pM, a koff of 5.02e-05 s⁻¹ and a kon of 162000 M⁻¹ s⁻¹. Binder B2 has a Kd of 270 pM, a koff of 3.96e-05 s⁻¹ and a kon of 147000 M⁻¹ s⁻¹. B3 was tested, and the Kd was 48.2 pM, the koff was 2.11e-05 s⁻¹ and the kon was 438000 M⁻¹ s⁻¹. In the case of B4, the Kd is reported as 464 pM, the koff is reported as 5.26e-05 s⁻¹ and the kon is reported as 113000 M⁻¹ s⁻¹. Work on B5 yielded a Kd of 21.2 pM, a koff of 1.2e-05 s⁻¹ and a kon of 568000 M⁻¹ s⁻¹. B6 showed a Kd of at most 95.2 pM, a koff of at most 1e-05 s⁻¹ and a kon of 105000 M⁻¹ s⁻¹. In the case of B7, the Kd is reported as 37.4 pM, the koff is reported as 1.05e-05 s⁻¹ and the kon is reported as 281000 M⁻¹ s⁻¹. B8 gave a Kd of 53.1 pM, a koff of 2.17e-05 s⁻¹ and a kon of 408000 M⁻¹ s⁻¹. Binder B9 has a Kd of 38.9 pM, a koff of 1.48e-05 s⁻¹ and a kon of 381000 M⁻¹ s⁻¹. Work on B10 yielded a Kd of 421 pM, a koff of 3.46e-05 s⁻¹ and a kon of 82000 M⁻¹ s⁻¹. For B11, the Kd was 287 pM, the koff was 3.93e-05 s⁻¹ and the kon was 137000 M⁻¹ s⁻¹. Binder B12 has a Kd of 554 pM, a koff of 6.07e-05 s⁻¹ and a kon of 110000 M⁻¹ s⁻¹.

What follows are binders tested against T1, mouse IL-17A (assay: competition ELISA: purified His-tagged clone against biotinylated mIL-17A binding to coated mIL-17A receptor Fc).
Description: An inhibition assay was performed to determine if the round 5 and 9 panning outputs against mouse IL-17A (mIL-17A) inhibited binding of mIL-17A to the mIL-17A receptor. Maxisorp plates were coated with 0.2 μg/ml mIL-17A receptor Fc fusion (R&D Systems, Minneapolis, Minn.) overnight, washed with Phosphate-Buffered Saline (PBS), pH 7.4 with 0.05% Tween-20 […] and blocked with 2% BSA, 5% Sucrose in PBS. 10 ng/ml biotinylated-mIL17A (b-mIL-17A) was added into the clarified bacterial lysates diluted 1:50 in 1% BSA in PBS, and the mixtures were incubated for 20 minutes. The blocked plates were washed and the bacterial lysates/b-mIL-17A incubations were transferred onto the plates. The plates were incubated for an additional hour, washed with PB ST, and the biotinylated protein detected with streptavidin-HRP (Jackson Immunoresearch, West Grove, Pa.) and OPD colorimetric substrate (Sigma-Aldrich, St. Louis, Mo.). Absorbance at 490 nm was read using an M5 plate reader (Molecular Devices, Sunnyvale, Calif.) and the data converted to % inhibition. Percent inhibition for mIL-17A:mIL-17 receptor binding was defined as 100−(sample/negative control×100).
Select bacterial lysates containing the scaffold molecules inhibiting the mIL-17A:mIL-17 receptor interaction were further characterized in a dose response inhibition assay using the protocol described above, except that 100 μl of purified TCL14-His (Ni-NTA) fusion proteins were used in the assays between concentrations of 10 μM to 56 pM. IC50 values were calculated from the dose response curves using a sigmoidal dose response fit.
B1 was tested, and the IC50 was 8.83 pM. B2 gave an IC50 of 42.8 pM. With B3 the IC50 was 302 pM. B4 was tested, and the IC50 was 64.2 pM. B5 was tested, and the IC50 was 109 pM. B6 was tested, and the IC50 was 242 pM. B7 gave an IC50 of 117 pM. B8 was tested, and the IC50 was 261 pM. B9 was tested, and the IC50 was 428 pM. For B10, the IC50 was 55.8 pM. For B11, the IC50 was 33.9 pM. Binder B12 has an IC50 of 91.2 pM.
